Here are results for one molecule from patent publication US11034736B2, “Anti-viral cnidarins” (priority 2014, dated 2021).

One series has as its target HIV-1HXB2 gp41 (Human immunodeficiency virus type 1 group M subtype B, UniProt P04578). Particulars: ELISA, 100 ng/well gp41. How it is done: (§1) High protein binding Greiner 96-well plates (VWR, Bridgeport, N.J.) were coated with 1 pmol/well of recombinant HIV-1IIIIB gp120 (Immuno Diagnostics, Woburn, Mass.) or recombinant HIV-1HXB2 gp41 (Vybion Inc., Ithaca, N.Y.) at 4° C. overnight. The wells were emptied and then blocked with 200 μl/well of 3% non-fat dry milk (Bio-Rad, Hercules, Calif.) blocking solution for 2 hrs. A control plate was incubated with blocking solution only. After washing three times with PBST, 0.5-log10 serial dilutions of rCNID-1-Trx were added to triplicate wells of gp120−, gp41− and the blocking solution control plate, and the plates were incubated for 2 hrs. The plates were washed with PBST and 100 W/well of a 1:250 dilution of polyclonal rabbit anti-CNID-1 antibody was added and allowed to incubate for 1 hr, followed by three washes with PBST. Goat anti-rabbit (H+L), peroxidase conjugated secondary antibody (Thermo Fisher Scientific Inc., Rockford, Ill.) was added to each well (100 μl/well of a 1:1000 dilution) and further incubated for 1 hr, followed by three washes with PBST. The TMB 2-component Microwell peroxidase substrate kit (KPL Inc., Gaithersburg, Md.) was used for peroxidase detection: 100 W/well, incubation for 5-10 min and the reaction was stopped by addition of 0.5M HCl (100 W/well) before reading the absorbance at 450 nm.
For orientation: In an ELISA, binding on a coated surface is turned into a signal by an enzyme label.

The subject of a further series is CEM-SS cells. The series is described as follows: Direct toxicity to uninfected CEM-SS control cells (XTT). In kind it is cell-based, human. How it is done:
A 2,3-bis-[2-methoxy-4-nitro-5-sulfophenyl]-2H-tetrazolium-5-carboxanilide inner salt (XTT)-tetrazolium-based assay was used to determine the anti-HIV activity of CNID-1, -2 and -3 against a T-tropic laboratory strain (HIV-1RF) in T-lymphoblastic CEM-SS cells as described previously (Gulakowski et al., J. Virol. Methods, 33: 87-100 (1991)). CEM-SS cells were maintained in RPMI 1640 media without phenol red and supplemented with 10% fetal bovine serum (BioWhittaker), 2 mM L-glutamine (BioWhittaker), and 50 μg/ml gentamicin (BioWhittaker) (complete medium). Exponentially growing cells were washed and resuspended in complete medium, and a 50 μl aliquot containing 5×10^3 cells was added to individual wells of a 96-well round-bottom microtiter plate containing serial dilutions of the respective cnidarin protein in a volume of 100 μl of medium. Stock supernatants of HIV-1RF were diluted in complete medium to yield sufficient cytopathicity (80-90% cell kill in 6 days), and a 50 μl aliquot was added to appropriate wells. Plates were incubated for 6 days at 37° C. and then stained for cellular viability using XTT.
(§2) The HIV reverse transcriptase inhibitor 3′-Azido-3′-deoxythymidine (AZT) was used as a positive control. All assays were carried out in triplicate for all viruses and cells.
(Tetrazolium dyes change colour on reduction, which living cells bring about.)

In a further series the target is HIV-1IIIB gp120 (Human immunodeficiency virus type 1 group M subtype B, UniProt P04578). Particulars: ELISA. How it is done: as §1
Briefly, 100 ng/wells of glycosylated recombinant HIV-1IIIB gp120 (Immuno Diagnostics, Woburn, Mass.) or nonglycosylated HIV-1 gp120 (MyBioSource LLC, San Diego, Calif.) was added to the wells of two 96-well plates, and incubated overnight at 4° C. The plates were washed and blocked as previously described. Serial dilutions of rCNID-1-Trx were added (100 W/well); incubation done for 2 hrs. The plates were then washed and visualized using anti-CNID-1 polyclonal antibodies as above.

Another series has as its system PBMC. The series is described as follows: Cell viability of PBMC cultures (CellTiter formazan dye reduction). In kind it is cell-based, human. The text has this:
(§3) To test the anti-HIV activity of CNID1 against HIV primary isolates in fresh human cells, monocyte-tropic HIV-1 strain Ba-L was obtained from the NIAID AIDS Research and Reference Reagent Program (National Institutes of Health, Bethesda, Md.). The low passage HIV-1 pediatric isolate ROJO was derived as described previously (Buckheit et al., AIDS Res. Hum. Retroviruses, 10: 1497-1506 (1994)). Human peripheral blood mononuclear cells (PBMCs) and macrophages were isolated from hepatitis and HIV seronegative donors following Ficoll-Paque centrifugation as described elsewhere (Gartner & Popovic, Techniques in HIV Research, Aldovini, A. and Walker B., eds., pp. 59-63, Stockton Press, New York, 1990). Antiviral assays were carried out with 3-day-old phytohaemagglutinin/interleukin-2 stimulated PBMCs or 6-day-cultured monocyte/macrophages. […] HIV-1 replication in PBMC (ROJO) or monocyte macrophage (Ba-L) cultures were determined by measurement of reverse transcriptase activity (Buckheit et al., Antiviral Res., 21: 247-265 (1993)) in the supernatants or p24 antigen expression by ELISA (Coulter, Hialeah, Fla.), respectively. Cell viability by formazan dye reduction was determined in replicated cultures using the CellTiter reagent (Promega, Madison, Wis.). […]

For series [1], the system named is HeLa CD4 LTR β-galactosidase cells. The series is described as follows: Cytotoxicity in the attachment and fusion assays. In kind it is cell-based. Here is the method:
as §2
Attachment and fusion assays were performed in HeLa-CD4-LTR-β-galactosidase cell lines as described previously (Gartner & Popovic, (1990), supra) with the following modifications. Following the interaction of HIV-1IIIIIB with HeLa CD4 LTR β-gal cells, viral attachment to HeLa CD4 LTR β-gal cells was detected as cell-associated p24 antigen following a 1 hour adsorption of virus and vigorous washing for removal of unbound virus. Fusion of HIV-1IIIIB with HeLa CD4 LTR β-gal cells was detected by chemiluminescence using a single-step lysis and detection method (Tropix Gal-screen, Bedford, Mass.) and results reported as EC50 values. Chicago Sky Blue, a polysulfonic acid dye inhibitor of HIV attachment and fusion, was used as a positive control for all assays (Clanton et al., J. Acquired Immune Defic. Syndr., 5: 771-781 (1992)).

Another series relates to Macrophage. The series is described as follows: Cell viability of monocyte/macrophage cultures (CellTiter formazan dye reduction). The series is classed as cell-based, human. To be noted: macrophages.
Text: as §3

Read-outs that look alike come from different tables or passages of the source.

B1: CNID-1: HIV-inhibitory protein from soft coral Synthecium sp.; 172 amino acids, 18,122 Da, SEQ ID NO: 1 (protein)
chain: GRATLGQLKTSTIPPVTFDVPFDGANIPQDVRFTIATVNGGKGALYNAELGESAGHTIVLESDGDHPIPGTFDPKSGRGLDYLPRGLVLFSSHNYVGNMKMYTEPDSDITADFPPGTPFGVSSAITGEGSAFQLNTGIDHTGEFEIIPPNTKRNLAGVFDNEIRSVSPTGGK
As usually defined, the CC50 is the concentration giving 50% cytotoxicity. B1: the “Binding to gp41” value in the series with HIV-1HXB2 gp41 is “not gp41”. Besides, the CC50 in the series on CEM-SS cells is 112 nM; in the series with PBMC it was 144 nM; in series [1] (attachment assay, read-out: Inhibition of Attachment CC50), over 55.2 nM; in series [1] (fusion assay, read-out: Inhibition of Fusion CC50), over 55.2 nM; in the series on Macrophage it was 3.56 nM. Besides, the “Binding to glycosylated versus non-glycosylated gp120” value in the series with HIV-1IIIB gp120 (100 ng/well) is given as “bound better to glycosylated gp120 as compared to non-glycosylated gp120”. Moreover, the “Binding to gp120” value with HIV-1IIIB gp120 (100 ng/well gp120) was “specific binding to viral glycoprotein gp120 in a concentration-dependent manner”.
